What was measured:
[1] = molecular target: cell-surface HLA-A2 on Hmy2.C1R-A2 target cells with HTLV-1 TAX 11-19 peptide (human; HTLV-1), A*02:0; experiment: cell-based or functional assay
[2] = molecular target: cell-surface HLA-A3 on Hmy2.C1R-A3 transfectants with pn2a.A3 peptide (human)
[3] = molecular target: cell-surface HLA-A2 on Hmy2.C1R-A2 transfectants with HIV gag 77-85 peptide (human; HIV), A*02:0
[4] = molecular target: cell-surface HLA-A1 on Hmy2.C1R-A1 transfectants with ornithine decarboxylase 309-317 (OD 309) peptide (human); experiment: competition with 2.5 µM myc-hβ2m on Hmy2.C1R-A1 cells with OD 309 peptide, 9E10 anti-myc, flow cytometry
[5] = molecular target: cell-surface HLA-A1 on Hmy2.C1R-A1 transfectants with ornithine decarboxylase 309-317 (OD 309) peptide (human); experiment: HLA stabilization assay, acid-stripped Hmy2.C1R-A1 cells with OD 309 peptide and BB7.5 mAb, flow cytometry
[6] = molecular target: cell-surface HLA-A3 on Hmy2.C1R-A3 transfectants with pn2a.A3 peptide (human); remark: listed apart in the source

Substance | hβ2m concentration giving maximal lysis by the TAX-specific CTL clone [1] | fold better inhibition of myc-hβ2m binding than wild-type hβ2m at a molar level [2] | fold better inhibition of myc-hβ2m binding than wild-type hβ2m at a molar level [3] | enhancement of target cell lysis, fold more effective at a molar level than wild-type hβ2m [1] | fold better inhibition of myc-hβ2m binding than wild-type hβ2m at a molar level [4] | fold better stabilization than wild-type hβ2m at a molar level [5] | fold better stabilization than wild-type hβ2m at a molar level [6]
wild-type human β2-microglobulin (hβ2m), recombinant (from UniProt P61769 21-119) | 8 µM |  |  |  |  |  | 
hβ2m S55V (human β2-microglobulin with valine at position 55) (from UniProt P61769 21-119) |  | 2.5 fold | 2.5 fold | 4 fold | 2.5 fold | 2 fold | 3 fold

— patent EP1086224B1
